Assay results as given in publication PMC11277095 (International Journal of Molecular Sciences, 2024).

Target: the molecule itself
Experiment: native gel or EMSA; 10 µg purified protein mixed with hypotonic buffer, hyperosmotic resealing solution (10% v/v Pigpa) or loading buffer; Tris/glycine buffer pH 8.3, 100 V; Coomassie staining

B1: Human ornithine aminotransferase variant R217A (OAT-R217A) (enzyme, UniProt P04181 26-439, looked up)
chain: TSVATKKTVQGPPTSDDIFEREYKYGAHNYHPLPVALERGKGIYLWDVEGRKYFDFLSSYSAVNQGHCHPKIVNALKSQVDKLTLTSRAFYNNVLGEYEEYITKLFNYHKVLPMNTGVEAGETACKLARKWGYTVKGIQKYKAKIVFAAGNFWGRTLSAISSSTDPTSYDGFGPFMPGFDIIPYNDLPALEAALQDPNVAAFMVEPIQGEAGVVVPDPGYLMGVRELCTRHQVLFIADEIQTGLARTGRWLAVDYENVRPDIVLLGKALSGGLYPVSAVLCDDDIMLTIKPGEHGSTYGGNPLGCRVAIAALEVLEEENLAENADKLGIILRNELMKLPSDVVTAVRGKGLLNAIVIKETKDWDAWKVCLRLRDNGLLAKPTHGDIIRFAPPLVIKEDELRESIEIINKTILSF
modifications: PLP bound to Lys292 through a Schiff base linkage
notes: Human ornithine aminotransferase, mitochondrial; construct printed as 'pET43a Δ26-439 OAT-R217A', the mature form with Arg217 changed to alanine; also called dimeric hOAT; source: E. coli BL21, purified (DEAE HiPrep FF, Sephacryl S-100)
Does B1 bind?
Result: binds
